Data reported in the DeepSol protein solubility set.

Experiment: soluble on expression in E. coli; label from the status in PepcDB or PDB records
In the case of “MSLSGYAQTTKSEKIDKKLDSIYLKRENYVVSARDKLTIFIFSTRYLNGKLFTNPGIDNYYFPIAPLNIGLGFSHKWLAVNIAILSPKLGKSNYDNSQSKYQNFNLQALAYTPKYGVDIFYSQNLGYFLGNYNGYIDVANAPDKTPYFDMKTNRFTINLLRVFNPVKYSMNATMIGGEMQKNSSSSFIINTSFSLSKFRMSDSIPAFILDQMNQEAIFKGGTFYSISVLPGYGFTWIFSKRFYLGIIPGFGPSFQYKSMTFEDEHENKVAISYRIIAKAGAGFHAKRWTAGISVLYDNERYHLGSKTNIFNNNGKVILKVGYKINVPNWGKGLSKKMSTMQNKFEHTLHNEGHHHHHH”, the “soluble on expression in E. coli” value is reported as “not soluble”. For “MWPLLKNNVVRTGRRYAVFQPRRFTPRPQHDAFGTKDDVRGFTVFSHAACGASLMDPLSPSRWEVALFPSSPPSLKDSCHLCAWTFGLAGPCAAWLSTRRELVGGFSKIIYIQNSAECWSVRETKRCCRICRWRSTSSSTDLRSNPYPIRWCYCWTMFPPMYPVLLLTASPVPTPLEHHHHHH”, the “soluble on expression in E. coli” value was “not soluble”. With “MDGSVVRHEERLNVGKERVESGRMRIRKHVVHDTETVEVPVEREEIHVERVPLDEKVAADDAKLSEGTQDIVTHEERPVVNKETVGVEKIKIGKEAVQDTETVSGKVAKEQIDIDNAKHTKLEHHHHHH” the “soluble on expression in E. coli” value was “not soluble”. With “MGSDKIHHHHHHMKRILFISPTTSMDNGAEKSIYYLMKHLIQLGHTVINVTHAIGGEPQDKHEQLYKMIGVKNYYLPTVKWWWPDAPGGEILNREEATSYYRQNVQDIAEIIDQNEIDLVISNTVNVFQGAIAASCQKVPHFWLIHEFPKNEFAYYADKIDFIEEYSSELFSVTGELNNFLTPLFNKKVHSFISYTEQETKVLKKGNQVRIVSVGRLTEGKNQLELIKAYKTLNRLDIELVFIGGWDSKYKAICDEYIHENKLQKNVKFLGNLDNPWEEVTDRDICVFPSSMETFGLVYVEAILRGLPVILSDNLGHLTAFEIFSAGQIYKLGDIEELVTKLEQVIESFRNFSDRARLDVERLRTLYTPEVAYKEILNSINHLEYTGHQNTNLSHIKELLTLNMHPTRLERYARLISNMATKIRHKLRL” the “soluble on expression in E. coli” value was “not soluble”. For “MSLSQFKPTWMVKNIYDLTPAQLRANGIKVILTDLDNTLIAWNNPDGTPELRHWLTLLELAGIRVIVVSNNNRKRVDRAVAPFNLDYIHRALKPLSWGILRALRRWHLNRDEVVMVGDQLLTDVWAAHHSGVRSVLVKPILKSDAWVTKGNRLMEKVVMWRLRHNYPELTWQEDLDERKAHEGHHHHHH”, the “soluble on expression in E. coli” value was “soluble”. For “MSLLKQRFVLDTTALTDLQTREVMGYASLCEGMKAILDLIADARLHFGISCYVPYPSVYKEMYEFASRNGCDREVVAKIDTWLVKKSPDRYRVSVTSQIFHEYVAYMRERINRGMGVAEDAIWEAATECLFMENPQNKKKEYKEEVEREVIGGIIGKFRNKYRAALRYGILDSAPDIDVLILAKELDAAVIASDYGIEKWAEQLGVRFVPANVFPMMIQEYLKHLPENENEPEYENRDKSKEGSSGEIEFIEGHHHHHH”, the “soluble on expression in E. coli” value was “soluble”. In the case of “GHMVDLEQEFALGGRVLAFHGPLMYEAKILKIWDPSSKMYTSIPNDKPGGSSQATKEIKPQKLGEDESIPEEIINGKSFFIHYQGWKSSWDEWVGYDRIRAYNEENIAMKKRLANEAGSTGSAPATGGVKKPHRYR”, the “soluble on expression in E. coli” value is reported as “soluble”. In the case of “GAMSEAFHTHSGIGVPLRRSNVDTDQIIPAVFLKRVTRTGFEDGLFAGWRSDPAFVLNLSPFDRGSVLVAGPDFGTGSSREHAVWALMDYGFRVVISSRFGDIFRGNAGKAGLLAAEVAQDDVELLWKLIEQSPGLEITANLQDRIITAATVVLPFKIDDHSAWRLLEGLDDIALTLRKLDEIEAFEGA”, the “soluble on expression in E. coli” value is reported as “soluble”. In the case of “MMNSIKFIFLGDVYGKAGRNIIKNNLAQLKSKYQADLVIVNAENTTHGKGLSLKHYEFLKEAGVNYITMGNHTWFQKLDLAVVINKKDLVRPLNLDTSFAFHNLGQGSLVFEFNKAKIRITNLLGTSVPLPFKTTNPFKVLKELILKRDCDLHIVDFHAETTSEKNAFCMAFDGYVTTIFGTHTHVPSADLRITPKGSAYITDVGMCGPGFGSVIGANPEQSIRLFCAGSREHFEVSKCGAQLNGVFFEVDVNTKKVIKTEAIRIVEDDPRYLKQDYFNLI”, the “soluble on expression in E. coli” value is reported as “soluble”. With “MGSDKIHHHHHHMITSKDNLTLIFVHACGVGNWMWYKQKDYFSNFSCMFIELPEHGDNYNIQPFSVKSAIKMIDKTVRSASGEVVLIGHEMGARLILNYLAEYTNDKVKKIVLSSTMIKTVKEGLFHKILPAKIIEKEFEKKNKNLQNIDFIKKTLDYYGVEEEYKDYYLNDMKRYKPRQLIKIIQEGLLKKLPLNLFIDNDIPALILVGEKETNANRLSAKLLSEYFSNSELIIVDNSTDNHIRTNSMVFNDRVKNFILT” the “soluble on expression in E. coli” value was “not soluble”. In the case of “MAMSTKLSVAIHILSLIETGPQEQVTSEYIASSVNTNPVVVRRLMSQLKKAGLIHSMRGANKNTLLKKPEEISLYEIYTAVELEREIFNIHQNPNPNCSVGANIQSVLETEFTKVQQKMEEELKSITLADVIHEIEVKRDK”, the “soluble on expression in E. coli” value is reported as “not soluble”. With “MAHHHHHHMGSCCAKSDTSVDIDDSGRGVERDTEDDNNVYILQYQSRGEVLKMLELEPTPHEASVMTQSPSLPTDGPAAEECAEAELSDPLSCSSTTIVTVRSERRAADRFSANSLTWTLPEVSATTVSTRFDHARTTSFMGSDDDFSSVEWSANSRKDRRLMLLRDRDRAAQRDMVMNEMDQRRFIAEHANRAHRAILVTYIRNRLEIERRVSYEEFLVERNAFLLHELEAREPLVRRTVELQAHSELLNKMQQQRLLRNRGK” the “soluble on expression in E. coli” value was “soluble”. For “GPGSMPPTHLLPTIDVSLRDKLSRFVESRGLLQMALEIATDDERRFDLAVQLKQLLLAHEIASAANVASHWKQVGDIALEQGYFEMAIESLEKCNDWSGLLLIYTSLNDMEAISRLGDRCLQRGQANLAFTCYHLTQRHAECVELLQKTGKTGDAAFYARTYYPSLIEDAVAKWRVSVASIPRVSQALASPAAYPNLFPSLRNVDLLPPKGSEADAPLNAQPPPPGASASLHGSCTAPTVADWFQPAAAAPQQLMHPPPLPDNVDSEPSGMQELADEEETWGED”, the “soluble on expression in E. coli” value was “soluble”. With “AHHHHHHGSSVEVPLNPITRSEIHQLESILLFATLFRPEVIELIKDPAERLTWVDSLAVAAGAIAREKAGMTVSEIARELGRTEQTIRKHLKGESKAGQLVRETYELIKQGKLDELIKTIEMIEKGGLREVVAKEEYEKLLQEYEKLKQEYEAIKEKVEAAELESLEKAKEEIENLKKKLQKLEEEKKELEKELKEQKVKLIEYEAKAKRAEELENKVKELEQLAKESEELKKKLEEVQAEAEKAKELENRIKELEEEITKLKDGIKKAKEILESLL” the “soluble on expression in E. coli” value was “not soluble”. In the case of “MFDFSKVVDRHGTWCTQWDYVADRFGTADLLPFTISDMDFATAPCIIEALNQRLMHGVFGYSRWKNDEFLAAIAHWFSTQHYTAIDSQTVVYGPSVIYMVSELIRQWSETGEGVVIHTPAYDAFYKAIEGNQRTVMPVALEKQADGWFCDMGKLEAVLAKPECKIMLLCSPQNPTGKVWTCDELEIMADLCERHGVRVISDEIHMDMVWGEQPHIPWSNVARGDWALLTSGSKSFNIPALTGAYGIIENSSSRDAYLSALKGRDGLSSPSVLALTAHIAAYQQGAPWLDALRIYLKDNLTYIADKMNAAFPELNWQIPQSTYLAWLDLRPLNIDDNALQKALIEQEKVAIMPGYTYGEEGRGFVRLNAGCPRSKLEKGVAGLINAIRAVR”, the “soluble on expression in E. coli” value is reported as “soluble”. In the case of “MGESIPLAAPVPVEQAVLETFFSHLGIFSYDKAKDNVEKEREADKSAGGSWLSLLAALAHLAAAEKVYHSLTYLGQKLGGQSFFSRKDSIRTIYTSLHNELKKVVTGRGALGGTAPHVEELLSHLSEQLCFFVQARMEIADFYEKMYTLSTQKFINAEELVGLLDAIMKKYSSRFHHPILSPLESSFQLEVDVLCHLLKAQAQVSEWKFLPSLVNLHSAHTKLQTWGQIFEKQRETKKHLFGGQSQKAVQPPHLFLWLMKLKNMLLAKFSFYFHEALSRQTTASEMKTLTAKANPDFFGKISSFIRKYDAANVSLIFDNRGSESSQGHGYHHPHSYREAPKGVDQYPAVVSLPSDRPVMHWPNVIMIMTDRTSDLNSLEKVVHFYDDKVQSTYFLTRPEPHFTIVIIFESKKSERDSHFISFLNEVSLALKNPKVFASLKPGSKGSCYQCNYFVAFCLDYSKLLLQRK”, the “soluble on expression in E. coli” value is reported as “not soluble”. For “MSLEEQLAQNDQPSEKLVRLYGAWAEGGAGVLVTGNVMVAESGKGSINDVLISDDRALEMLKKWAKARTQNDTLLIMQINHAGKQSPAVVNKTPLAPSAVPLVGMNGFINPPRELSADEINGLIQQFVQTAKIAEQAGFSGVQIYAVHGYLISQFLSPHHNRRQDQWGGSLENRMRFLLETYTAIRAAAGKDFLVGVKLNSADFQKGGFDESESVQVVQKLSEMGIDFIEVSGGNYESPQMLAAKDSTRKREAFFIDYAEKARAASQAPLIITGGFRSQTAMEDALSSGHLDLVGIARPFALVPDLANKMQNRTYQTVQADRIQTGVAFVDKKAGAMLEMNWYMTQMDLIGQGKQSNPKIVGVESIAENFAGKEGHHHHHH”, the “soluble on expression in E. coli” value was “not soluble”. For “MNYEGKTKIVKVTGDYALLEFKDDITAGDGLKHDVLTGKGSICAETTAILMKYLSEKGIKTHLVEYIPPRTLKVIPLKMFPLEVVVRLKKAGSFVRRYGGAEGEDLPVPLVEFFIKDDERHDPMVCVDHLEILGIATKKQAEKMKEAAVKITLALKEFFERANFELWDIKYEFGLDKDGNVVLGDEISPDTFRLRKKGEIFDKDVYRRDLGDPLKKYREVLELCRSLNSQ”, the “soluble on expression in E. coli” value was “soluble”. With “MPVLVFGAVNVHDGDTVAVVHQEESANATAFLDFLRLLKERHPNRMIALVLDNARIHHARMVKDFLREEGQCFHFLYLPPYSPQLNPIERLWKWLKDTVITNAFHKDRHEILQAVQRLIHYIPKRPEDVLRRLECAV” the “soluble on expression in E. coli” value was “not soluble”. With “MLTQEHINIIKSTIPLLESAGPALTQHFYQRMFSHNPELKHIFNMTHQKTGRQSVALFEAIAAYAKHIDNLAALTSAVERIAHKHTSFNIQPEHYQIVGHHLLETLRELAPDAFTQPVEEAWTAAYFFLAQVFIDREGALYLERKQALGGWRDGRTFVVREKQVESAYVTSFVLVPADGGAVLDYQPGQYIGIEVTPEGSDYREIRQYSLSHASNGREYRISVKREGVGSDNPGLVSHYLHNNVKVGDSVKLYAPAGDFFYVERERPVVLISAGVGATPMQAILHTLAKQNKSGVTYLYACNSAKEHTFAQETAQLIAQQGWMQQVWYRDESADDVLQGEMQLAELILPIEDGDFYLCGPIGFMQYVVKQLLALGVDKARIHYEVFGPHAQLAA” the “soluble on expression in E. coli” value was “not soluble”. With “MSLNGNATDSSSSTSSMTENSDGQKQNNEWFHGVLQRQDADELLVKPGSFLLRASEVHGKMSMILSVRHDGKLHNIAVNSDTGENFWFEGHREKSIDQLVQWHMTTSTPITKTSGVKLKYPIGKADWIISHENVIFIKKLGEGAFGEVSLAECEIGGRKVETAVKTMRCQMTRDTRAAFMKEARLMRKYSHPHIVRIIGKIIVKHLPKVGLAVDAHPLMIVMEMCPHGSLLSFLRKNKGKTTLSERLRFCIESADGLAYLEKKQCLHRDIAARNCLLSITDQIKISDFGLSDDKRTEMHDDTLDKVPVKWLAPEVMQDKLYSLKSDVWAFGVLMWEIYADGADPYPGMTNLVTRAKIFCDDYRMTFPETTPPTISEIALKQCWAKLPSDRATMKTVHHKLKDLSMPMSDVSFSMKMKR” the “soluble on expression in E. coli” value was “not soluble”. In the case of “MKIVIGTKIKEQRQQHEWSQQTVAERLHVSRQTISKWELGKSYPDLELLVALSKLFSVSTDELLGLSRRPVQRPWWQLLLRKRSRTDMTVKWYSGGQDRARVAVGIISDLVANLNTTNEQPLRQLLATYYQELLEQRTGSVLGVFDRMNLDISKCLRQQQIKLSPENEQLMQQLVGLNMIYYR”, the “soluble on expression in E. coli” value is reported as “not soluble”. In the case of “MRLFECGTLVPGCAWHTRADDDAEVVRRTVDHMRSAHGETIIRENMIENIKSRIRDEANAA”, the “soluble on expression in E. coli” value is reported as “not soluble”.
